Laboratory results published in patent publication US20100143942A1, “METHOD OF DETECTION” (LEIDEN UNIVERSITY, priority 2006, published 2010).
Read-outs that look alike come from different tables or passages of the source.

What was measured:
[1] = molecular target: T1, Ty (Streptomyces antibioticus, UniProt P07524); assay: Dye emission switching ratio (Fred/Foxy) of N-terminally labelled Ty; details: dye attached to Ty; excitation at 280 nm; Trp line = native protein
T1 construct: The S.a; Ty is a monomeric protein with a molecular mass of ˜30 kDa
Text: (§1) To illustrate the present invention two type-3 copper proteins have been selected: Hc from the arthropod Carcinus aestuarii (Mediterranean crab) and Ty from the soil bacterium Streptomyces antibioticus. The C.a. Hc consists of a mixture of hexamers and dodecamers, which are self-assembled from three different types of subunits. The S.a. Ty is a monomeric protein with a molecular mass of ˜30 kDa. The structure of Ty from S. castaneoglobisporus has recently been solved. S.a. Ty has 91% sequence similarity (82% indentity) with S.c. Ty and can be easily modelled on the S.c. structure. […] Dissociation can be achieved by incubating the Hc at high pH and in the absence of divalent metal ions. Both conditions were met in our experiments and we will assume, therefore, that the Hc used in this study was present in the form of monomers. The data on O2 binding (vide infra) confirms this assumption.
Both Hc and Ty were labelled at their N-terminus with each of the five dyes. […] The peak around 330 nm is a second-order artefact. In a solution containing dye and protein separately (not linked) this peak (280 nm) was missing. […]
In all cases, an increase in label emission was observed after deoxygenating the sample (FIG. 4A). […] The Cy3 fluorescence is specific for the labelled protein, while the Trp emission derives mainly (>95%) from unlabelled Hc. […]

[2] = literature [15]; read-out: literature Kd (iodide); cited from earlier work
[3] = literature [12], [13]; cited from earlier work
[4] = literature [14]; read-out: literature dissociation constant (O2); cited from earlier work
[5] = Titration of a mixture of Hc-Alexa350 and Ty-Cy5 with iodide in air-saturated solution, emission upon excitation at 280 nm; assay type: binding; details: fitted to Eq. 1, read-out: apparent Kd (iodide)
Method: The specificity of the method is illustrated by the data presented in FIG. 7, which show a titration of a mixture of Hc-Alexa350 and Ty-Cy5 with iodide in an air-saturated solution. […] Hc. […] The small fluorescence decrease of the latter can be ascribed to the aspecific collisional quenching of the label and/or the Trp fluorescence by iodide. […] The difference between the experimental Kd and the literature value of 3.0±0.3 mM [15] may be related to its dependence on the [O2] in the sample, which may have varied between the two experiments.

[6] = O2 binding curve of labelled Ty; [O2] calculated from Hc-Atto390 fluorescence in the same sample during deoxygenation; parameters: species or system Streptomyces antibioticus; details: label fluorescence vs [O2] determined from Hc-Atto390; read-out: Kd (O2 binding curve fitted to Hill equation)
Text: as §1, with “Both conditions were met in our experiments and we will assume, therefore, that the Hc used in this study was present in the form of monomers. The data on O2 binding (vide infra) confirms this assumption.” left out
The fact that the described method works for labels showing widely different emission wavelengths opens the possibility to observe two or more constructs in the same sample using a single excitation wavelength. […] The circles refer to the oxygen concentration (right scale) as calculated from the fluorescence of the Hc-Atto390. The left scale refers to the Ty-Atto655 fluorescence. […]
The [O2] at each time-point in the trace was determined using the response of Hc-Atto390 fluorescence with Eq. 1 and the oxygen dissociation constant and the Hill coefficient determined in an independent O2 titration (FIG. 6A). The Ty-Atto655 fluorescence was then plotted as a function of the determined [O2] at each time-point (FIG. 6B). […]

T1 sequence (P07524 whole entry): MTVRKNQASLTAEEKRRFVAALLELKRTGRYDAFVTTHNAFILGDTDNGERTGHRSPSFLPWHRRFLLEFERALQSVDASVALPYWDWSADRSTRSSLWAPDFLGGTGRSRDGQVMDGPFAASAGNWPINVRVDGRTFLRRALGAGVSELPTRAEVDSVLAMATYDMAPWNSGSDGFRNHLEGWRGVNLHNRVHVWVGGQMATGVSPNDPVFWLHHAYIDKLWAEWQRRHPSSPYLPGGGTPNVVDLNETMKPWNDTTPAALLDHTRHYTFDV

With Cc1cc(=O)oc2cc3c(cc12)C(C)CC(C)(C)N3CCCC(=O)O (stereo not shown) [Atto390] the “SR Tyr (switching ratio Fred/Foxy)” value [1] was 2.2.

For CCN1C(=CC=CC2=[N+](CCCCCC(=O)O)c3ccc(S(=O)(=O)O)cc3C2(C)C)C(C)(C)c2cc(S(=O)(=O)[O-])ccc21 [Cy3], the “SR Tyr (switching ratio Fred/Foxy)” value [1] was 2.8.

B1: Ty: Ty from the soil bacterium Streptomyces antibioticus, monomeric type-3 copper protein of ~30 kDa (protein, UniProt P07524 2-273, looked up)
Tyrosinase: TVRKNQASLTAEEKRRFVAALLELKRTGRYDAFVTTHNAFILGDTDNGERTGHRSPSFLPWHRRFLLEFERALQSVDASVALPYWDWSADRSTRSSLWAPDFLGGTGRSRDGQVMDGPFAASAGNWPINVRVDGRTFLRRALGAGVSELPTRAEVDSVLAMATYDMAPWNSGSDGFRNHLEGWRGVNLHNRVHVWVGGQMATGVSPNDPVFWLHHAYIDKLWAEWQRRHPSSPYLPGGGTPNVVDLNETMKPWNDTTPAALLDHTRHYTFDV
For B1, the Kd [2] is listed as 3000 ± 300 µM, the O2 dissociation rate [3] is listed as roughly 300 s⁻¹ and the Kd [4] is listed as 16 µM.

B2: Ty-Cy5: Streptomyces antibioticus tyrosinase labelled at its N-terminus with the dye Cy5 (conjugate, UniProt P07524 2-273, looked up)
Tyrosinase: TVRKNQASLTAEEKRRFVAALLELKRTGRYDAFVTTHNAFILGDTDNGERTGHRSPSFLPWHRRFLLEFERALQSVDASVALPYWDWSADRSTRSSLWAPDFLGGTGRSRDGQVMDGPFAASAGNWPINVRVDGRTFLRRALGAGVSELPTRAEVDSVLAMATYDMAPWNSGSDGFRNHLEGWRGVNLHNRVHVWVGGQMATGVSPNDPVFWLHHAYIDKLWAEWQRRHPSSPYLPGGGTPNVVDLNETMKPWNDTTPAALLDHTRHYTFDV
modifications: N-terminal Cy5 label
B2 showed a Kd [5] of 4400 ± 300 µM and a Kd [6] of 15 µM.
